Usually Kd stands for the constant that tells how readily two partners part at equilibrium. Read a low Kd as higher affinity. Usually koff stands for the rate constant with which the complex falls apart. Low readings indicate slow dissociation, high ones fast dissociation. The kon is a measure of how fast the partners come together. A high value points to fast association.

Experimental findings from publication PMC10334784 are described below.

The target of the assay is HCoV-OC43 nucleocapsid (N) protein, 2X-StrepTag tagged (HCoV-OC43) (UniProt P33469). Put plainly: BLI.
Sequence of HCoV-OC43 nucleocapsid (N) protein, 2X-StrepTag tagged (HCoV-OC43) (P33469 whole entry): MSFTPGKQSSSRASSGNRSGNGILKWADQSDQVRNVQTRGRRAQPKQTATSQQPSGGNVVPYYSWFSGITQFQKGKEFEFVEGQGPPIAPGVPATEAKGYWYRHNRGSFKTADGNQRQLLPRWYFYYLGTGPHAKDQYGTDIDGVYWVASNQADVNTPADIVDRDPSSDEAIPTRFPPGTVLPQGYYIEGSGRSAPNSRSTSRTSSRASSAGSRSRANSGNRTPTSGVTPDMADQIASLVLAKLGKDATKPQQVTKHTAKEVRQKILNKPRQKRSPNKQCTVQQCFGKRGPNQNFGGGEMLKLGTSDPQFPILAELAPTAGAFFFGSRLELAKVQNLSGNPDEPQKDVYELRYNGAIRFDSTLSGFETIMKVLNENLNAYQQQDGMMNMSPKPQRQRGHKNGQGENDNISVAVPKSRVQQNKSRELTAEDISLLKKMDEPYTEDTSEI

In the case of CXCL4 (ligand), the Kd turned out to be 170 nM, the off-rate (koff) was determined as 0.00088 s⁻¹ and the kon was determined as 5300 M⁻¹ s⁻¹.
